Laboratory results from patent publication US20200157212A1 (Pfizer, published 2020).

T1: Human ROBO2 Ig1-Ig2-His (human, UniProt Q9HCK4 31-220)
T1 construct: the His tag is named only in the SPR paragraphs; the Octet and ELISA paragraphs print 'ROBO2 Ig1-Ig2' without a tag; also called ROBO2 Ig1-2; Human ROBO2 Ig 1,2
T1 sequence: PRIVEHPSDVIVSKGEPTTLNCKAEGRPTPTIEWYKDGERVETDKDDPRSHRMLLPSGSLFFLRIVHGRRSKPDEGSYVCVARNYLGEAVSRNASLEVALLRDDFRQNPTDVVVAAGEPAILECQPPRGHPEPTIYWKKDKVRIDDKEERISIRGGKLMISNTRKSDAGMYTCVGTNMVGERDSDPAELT

T2: Terbium (Tb) labeled-SNAP tagged ROBO2 expressed on HEK293 cells (Homo sapiens (Human), UniProt Q9HCK4 22-1378, terbium label on the SNAP tag)
T2 construct: also called Tb-labeled ROBO2 cells; ROBO2 expressing cells; not shown: SNAP tag
T2 sequence: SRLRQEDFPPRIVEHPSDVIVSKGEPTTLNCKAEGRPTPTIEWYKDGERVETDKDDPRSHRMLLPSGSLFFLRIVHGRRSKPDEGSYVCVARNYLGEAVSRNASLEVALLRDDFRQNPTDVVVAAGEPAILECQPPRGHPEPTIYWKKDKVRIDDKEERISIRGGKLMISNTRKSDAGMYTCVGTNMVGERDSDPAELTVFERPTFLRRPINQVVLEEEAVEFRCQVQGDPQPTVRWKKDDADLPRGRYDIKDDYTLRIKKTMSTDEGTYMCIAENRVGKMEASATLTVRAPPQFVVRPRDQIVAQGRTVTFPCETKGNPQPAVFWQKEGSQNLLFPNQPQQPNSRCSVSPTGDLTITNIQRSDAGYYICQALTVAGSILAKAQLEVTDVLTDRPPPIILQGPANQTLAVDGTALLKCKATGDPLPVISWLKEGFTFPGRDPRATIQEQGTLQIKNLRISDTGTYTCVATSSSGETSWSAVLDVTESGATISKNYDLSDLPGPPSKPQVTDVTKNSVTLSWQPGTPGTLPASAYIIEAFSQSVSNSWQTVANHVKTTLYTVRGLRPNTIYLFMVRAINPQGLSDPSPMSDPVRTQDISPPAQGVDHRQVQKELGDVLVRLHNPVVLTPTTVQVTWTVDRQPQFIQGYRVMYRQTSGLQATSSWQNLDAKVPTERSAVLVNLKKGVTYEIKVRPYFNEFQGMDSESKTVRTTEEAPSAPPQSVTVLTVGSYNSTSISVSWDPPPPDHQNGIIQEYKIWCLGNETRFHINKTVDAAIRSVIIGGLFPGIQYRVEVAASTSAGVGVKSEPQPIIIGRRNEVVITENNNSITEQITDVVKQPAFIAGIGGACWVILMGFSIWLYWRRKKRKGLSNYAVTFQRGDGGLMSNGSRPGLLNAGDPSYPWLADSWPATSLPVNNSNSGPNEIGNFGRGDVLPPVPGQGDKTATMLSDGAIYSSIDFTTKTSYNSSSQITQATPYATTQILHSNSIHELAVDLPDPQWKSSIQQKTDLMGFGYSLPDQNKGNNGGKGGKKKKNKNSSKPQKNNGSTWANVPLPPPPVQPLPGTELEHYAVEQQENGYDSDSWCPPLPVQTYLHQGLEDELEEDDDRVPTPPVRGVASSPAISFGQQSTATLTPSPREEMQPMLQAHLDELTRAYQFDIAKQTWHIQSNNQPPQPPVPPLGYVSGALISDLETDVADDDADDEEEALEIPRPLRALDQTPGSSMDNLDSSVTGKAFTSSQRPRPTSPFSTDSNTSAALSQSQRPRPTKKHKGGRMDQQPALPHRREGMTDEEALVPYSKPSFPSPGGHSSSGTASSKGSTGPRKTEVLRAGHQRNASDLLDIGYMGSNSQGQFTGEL


Legend:
[1] = target: T1, Human ROBO2 Ig1-Ig2-His; assay: SPR, antibody on CM5 chip, ROBO2 Ig1-Ig2-His
Procedure: Based upon several criteria, Abcs25 and Abcs35 were selected for further characterization. Using flow cytometry, improvement in the binding EC₅₀ to human ROBO2 relative to the parental 93H2 was evaluated. Starting at 6.7 nM, 11-point, 3-fold dilution series were made for each antibody and used to stain HEK293 overexpressing human ROBO2 as described above for the ROBO2 fold selectivity (Example 2). […] In addition to measuring improved binding to human ROBO2, it was important to ensure that high affinity binding to both cynomolgus monkey ROBO2 and rat ROBO2 was maintained. Using HEK293 cells overexpressing either cynomolgus monkey ROBO2 or rat ROBO2, the relative dose-dependent binding of 93H2, Abcs25 and Abcs35 was evaluated as described above. High affinity binding to both cynomolgus monkey and rat ROBO2 was maintained in Abcs25 and Abcs35 (Table 4). […] Briefly, Abcs35 was immobilized to 300 resonance units (RU) on a CM5 chip. Association of ROBO2 Ig1-Ig2-His (ROBO2) was measured over 5 minutes and dissociation was followed for a period of 10 minutes.
Affinity was measured by standard SPR methods as described in Example 3. Briefly, antibodies were immobilized to a specific measure of resonance units (RU) on a CM5 chip. Association of ROBO2 Ig1-Ig2-His (ROBO2) and dissociation will be followed for a period of time.

[2] = target: T2, Terbium (Tb) labeled-SNAP tagged ROBO2 …; assay: HTRF competition, competitor d2-SLIT2-N, ROBO2 HEK293 cells
Procedure: A ROBO2-SLIT2-N homogenous time resolved fluorescence (HTRF) assay was used to identify antibodies that were capable of blocking SLIT2-N binding to ROBO2. In this assay, terbium (Tb) labeled-SNAP tagged ROBO2 expressing HEK293 cells were incubated with 5 nM d2-labeled SLIT-2N in the presence of 1 nM anti-ROBO2 antibodies for 1 hour. After incubation, fluorescence at 665 nm and 620 nm was measured on an Envision multilabel plate reader. […] Maximal signal was defined as the HTRF ratio of Tb-labeled ROBO2 cells with d2-labeled SLIT2-N in the absence of antibody, the minimum signal was defined as the HTRF ratio of Tb-labeled ROBO2 expressing HEK293 cells only. One nanomolar (nM) parental antibody, 93H2, was unable to block the HTRF assay, therefore this concentration was selected to identify clones with a higher affinity than 93H2 (Table 2, HTRF Ratio column). […] Antibodies derived from chain (Abcs series) or CDR shuffling (CTIR-2 series) were evaluated in 11-point, 5-fold dilution series with a top concentration of 1500 nM (Table 2 HTRF IC₅₀).
Neutralization of SLIT2-N binding to ROBO2 was assessed ROBO2:SLIT2-N homogenous time resolved fluorescence (HTRF) assay as described in Example 2. Briefly the HTRF assay was performed as follows: terbium (Tb) labeled-SNAP tagged ROBO2 expressing HEK293 cells were incubated with d2-labeled SLIT-2N in the presence of anti-ROBO2 antibodies for 1 hour. After incubation, fluorescence at 665 nm and 620 nm was measured on an Envision multi-label plate reader. […] Maximal signal was defined as the HTRF ratio of Tb-labeled ROBO2 cells with d2-labeled SLIT2-N in the absence of antibody, the minimum signal was defined as the HTRF ratio of Tb-labeled ROBO2 expressing HEK293 cells only.

Kd [1] [nM] | IC50 [2] [nM] | Binder
0.125 | 0.0639 | Abcs35-D (antibody, human IgG1, kappa, germlined variant of Abcs35) heavy: EVQLVQSGAEVKKPGASVKVSCKASGYTFTGYYMHWVRQAPGQGLEWMGWINPKNGDTEFPQKFQGRVTMTRDTSISTAYMELSRLRSDDTAVYYCARESGDDAFDIWGQGTMVTVSSASTKGPSVFPLAPSSKSTSGGTAALGCLVKDYFPEPVTVSWNSGALTSGVHTFPAVLQSSGLYSLSSVVTVPSSSLGTQTYICNVNHKPSNTKVDKKVEPKSCDKTHTCPPCPAPEAAGAPSVFLFPPKPKDTLMISRTPEVTCVVVDVSHEDPEVKFNWYVDGVEVHNAKTKPREEQYNSTYRVVSVLTVLHQDWLNGKEYKCKVSNKALPAPIEKTISKAKGQPREPQVYTLPPSREEMTKNQVSLTCLVKGFYPSDIAVEWESNGQPENNYKTTPPVLDSDGSFFLYSKLTVDKSRWQQGNVFSCSVMHEALHNHYTQKSLSLSPGK light: DIVMTQSPSSLSASVGDRVTITCRASQSISSYLNWYQQKPGKAPKLLIYAASSLQSGVPSRFSGSGSGTDFTLTISSLQPEDFATYYCQQSVGLFFGGGTKVEIKRTVAAPSVFIFPPSDEQLKSGTASVVCLLNNFYPREAKVQWKVDNALQSGNSQESVTEQDSKDSTYSLSSTLTLSKADYEKHKVYACEVTHQGLSSPVTKSFNRGEC
0.0821 | 0.074 | Abcs35-C (antibody, human IgG1, kappa, germlined variant of Abcs35) heavy: EVQLVQSGAEVKKPGASVKVSCKASGYTFTGYYMHWVRQAPGQGLEWMGWINPKNGDTEFPQKFQGRVTMTRDTSITTAYMELSRLRSDDTAVYYCARESGDDAFDIWGQGTMVTVSSASTKGPSVFPLAPSSKSTSGGTAALGCLVKDYFPEPVTVSWNSGALTSGVHTFPAVLQSSGLYSLSSVVTVPSSSLGTQTYICNVNHKPSNTKVDKKVEPKSCDKTHTCPPCPAPEAAGAPSVFLFPPKPKDTLMISRTPEVTCVVVDVSHEDPEVKFNWYVDGVEVHNAKTKPREEQYNSTYRVVSVLTVLHQDWLNGKEYKCKVSNKALPAPIEKTISKAKGQPREPQVYTLPPSREEMTKNQVSLTCLVKGFYPSDIAVEWESNGQPENNYKTTPPVLDSDGSFFLYSKLTVDKSRWQQGNVFSCSVMHEALHNHYTQKSLSLSPGK light: DIVMTQSPSSLSASVGDRVTITCRASQSISSYLNWYQQKPGKAPKLLIYAASSLQSGVPSRFSGSGSGTDFTLTISSLQPEDFATYYCQQSVGLFFGGGTKVEIKRTVAAPSVFIFPPSDEQLKSGTASVVCLLNNFYPREAKVQWKVDNALQSGNSQESVTEQDSKDSTYSLSSTLTLSKADYEKHKVYACEVTHQGLSSPVTKSFNRGEC
0.128 | 0.0651 | Abcs35-E (antibody, human IgG1, kappa, germlined variant of Abcs35; also called Abcs35-eE) heavy: QVQLVQSGAEVKKPGASVKVSCKASGYTFTGYYMHWVRQAPGQGLEWMGWINPKNGDTEFPQKFQGRVTMTRDTSITTAYMDLSRLRSDDTAVYYCARESGDDAFDIWGQGTMVTVSSASTKGPSVFPLAPSSKSTSGGTAALGCLVKDYFPEPVTVSWNSGALTSGVHTFPAVLQSSGLYSLSSVVTVPSSSLGTQTYICNVNHKPSNTKVDKKVEPKSCDKTHTCPPCPAPEAAGAPSVFLFPPKPKDTLMISRTPEVTCVVVDVSHEDPEVKFNWYVDGVEVHNAKTKPREEQYNSTYRVVSVLTVLHQDWLNGKEYKCKVSNKALPAPIEKTISKAKGQPREPQVYTLPPSREEMTKNQVSLTCLVKGFYPSDIAVEWESNGQPENNYKTTPPVLDSDGSFFLYSKLTVDKSRWQQGNVFSCSVMHEALHNHYTQKSLSLSPGK light: DIVMTQSPSSLSASVGDRVTITCRASQSISSYLNWYQQKPGKAPKLLIYAASSLQSGVPSRFSGSGSGTDFTLTISSLQPEDFATYYCQQSVGLFFGGGTKVEIKRTVAAPSVFIFPPSDEQLKSGTASVVCLLNNFYPREAKVQWKVDNALQSGNSQESVTEQDSKDSTYSLSSTLTLSKADYEKHKVYACEVTHQGLSSPVTKSFNRGEC

The next lines start with the binder.

Binder | Kd [1] [nM] | IC50 [2] [nM]
Abcs35-A (antibody, human IgG1, kappa, germlined variant of Abcs35; also called Abcs-A) heavy: EVQLVQSGAEVKKPGASVKVSCKASGYTFTGYYMHWVRQAPGQGLEWMGWINPKNGDTEFPQKFQGRVTMTRDTSITTAYMDLSRLRSDDTAVYYCARESGDDAFDIWGQGTMVTVSSASTKGPSVFPLAPSSKSTSGGTAALGCLVKDYFPEPVTVSWNSGALTSGVHTFPAVLQSSGLYSLSSVVTVPSSSLGTQTYICNVNHKPSNTKVDKKVEPKSCDKTHTCPPCPAPEAAGAPSVFLFPPKPKDTLMISRTPEVTCVVVDVSHEDPEVKFNWYVDGVEVHNAKTKPREEQYNSTYRVVSVLTVLHQDWLNGKEYKCKVSNKALPAPIEKTISKAKGQPREPQVYTLPPSREEMTKNQVSLTCLVKGFYPSDIAVEWESNGQPENNYKTTPPVLDSDGSFFLYSKLTVDKSRWQQGNVFSCSVMHEALHNHYTQKSLSLSPGK light: not shown | 0.099 | 0.0728
Abcs35-B (antibody, human IgG1, kappa, germlined variant of Abcs35) heavy: EVQLVQSGAEVKKPGASVKVSCKASGYTFTGYYMHWVRQAPGQGLEWMGWINPKNGDTEFPQKFQGRVTMTRDTSISTAYMDLSRLRSDDTAVYYCARESGDDAFDIWGQGTMVTVSSASTKGPSVFPLAPSSKSTSGGTAALGCLVKDYFPEPVTVSWNSGALTSGVHTFPAVLQSSGLYSLSSVVTVPSSSLGTQTYICNVNHKPSNTKVDKKVEPKSCDKTHTCPPCPAPEAAGAPSVFLFPPKPKDTLMISRTPEVTCVVVDVSHEDPEVKFNWYVDGVEVHNAKTKPREEQYNSTYRVVSVLTVLHQDWLNGKEYKCKVSNKALPAPIEKTISKAKGQPREPQVYTLPPSREEMTKNQVSLTCLVKGFYPSDIAVEWESNGQPENNYKTTPPVLDSDGSFFLYSKLTVDKSRWQQGNVFSCSVMHEALHNHYTQKSLSLSPGK light: DIVMTQSPSSLSASVGDRVTITCRASQSISSYLNWYQQKPGKAPKLLIYAASSLQSGVPSRFSGSGSGTDFTLTISSLQPEDFATYYCQQSVGLFFGGGTKVEIKRTVAAPSVFIFPPSDEQLKSGTASVVCLLNNFYPREAKVQWKVDNALQSGNSQESVTEQDSKDSTYSLSSTLTLSKADYEKHKVYACEVTHQGLSSPVTKSFNRGEC | 0.123 | 0.0765
